Results from patent US20180037631A1 (Bristol-Myers Squibb, published 2018).

Columns and labels:
[1] = biological target: EGFR on the surface of human tumour cells (A431, H292) (human, UniProt P00533 25-1210); assay: cell-based or functional assay
[2] = biological target: T1, IGF-IR on human tumour cells (H292, MCF-7, RH41) (human, UniProt P08069 31-1367); assay: cell-based or functional assay
[3] = biological target: T2, Recombinant human EGFR-Fc (aa 1-645 of the extracellular domain of human EGFR fused to human Fc) (human, UniProt P00533 25-645)
T2 construct: range 1-645; bought from R&D Systems; also called EGFR645-Fc; EGFR-Fc (HER-1); not shown: human Fc

[4] = biological target: T3, IGF1R-Fc (extracellular domain of human IGF1R aa 1-932 fused to hinge and constant regions of human IgG1) (human, UniProt P08069 31-932)
T3 construct: range 1-932; made in house by transient transfection, purified on Protein A; also called IGF-IR-Fc; not shown: hinge and constant regions of human IgG1

mouse EGFR = mouse EGFR (mouse, UniProt Q01279 25-647, limits assumed); assay: SPR Biacore
rat EGFR = rat EGFR (rat, UniProt A0ABK0LZB0 35-1214); assay: SPR Biacore
monkey EGFR = monkey EGFR (monkey); assay: SPR Biacore
[5] = biological target: T1, IGF-IR on human tumour cells (H292, …); assay: cell-based or functional assay; remark: listed apart in the source
[6] = biological target: T1, IGF-IR on human tumour cells (H292, …); assay: cell-based or functional assay; remark: listed apart in the source

B1: I1-GS10-E3, non-pegylated (designed binder)
chain: VSDVPRDLEVVAATPTSLLISWSARLKVARYYRITYGETGGNSPVQEFTVPKNVYTATISGLKPGVDYTITVYAVTRFRDYQPISINYRTEIDKGSGSGSGSGSGSGSGSGSGSVSDVPRDLEVVAATPTSLLISWLPGKLRYQYYRITYGETGGNSPVQEFTVPHDLRTATISGLKPGVDYTITVYAVTNMMHVEYSEYPISINYRTEIDKPSQ
Q: With B1 as the binder, how does the “IC50, EGF-stimulated EGFR phosphorylation, A431 cells, In Cell Western” value [1] read?
A: 47 nM

Q: What about the “IC50, EGF-stimulated EGFR phosphorylation, H292 cells, ELISA” value [1] of the same binder?
A: 25 nM

Q: What about the “IC50, EGF-stimulated ERK phosphorylation, A431 cells, In Cell Western” value [1] of the same binder?
A: 42 nM

Q: What about the “IC50, IGF1-stimulated IGFR phosphorylation, H292 cells, ELISA” value [2] of the same binder?
A: 19 nM

Q: What about the Kd [3] of the same binder?
A: 2.48 nM

Q: What about the koff [3] of the same binder?
A: 0.000291 s⁻¹

Q: What about the kon [3] of the same binder?
A: 117000 M⁻¹ s⁻¹

Q: What about the Kd [4] of the same binder?
A: 0.03 nM

Q: And the koff [4]?
A: 4.54e-05 s⁻¹

Q: And the kon [4]?
A: 1.37e+06 M⁻¹ s⁻¹

B2: I1-GS10-E5 pegylated, His-tagged (designed binder)
chain: MGVSDVPRDLEVVAATPTSLLISWSARLKVARYYRITYGETGGNSPVQEFTVPKNVYTATISGLKPGVDYTITVYAVTRFRDYQPISINYRTEIDKGSGSGSGSGSGSGSGSGSGSVSDVPRDLEVVAATPTSLLISWWAPVDRYQYYRITYGETGGNSPVQEFTVPRDVYTATISGLKPGVDYTITVYAVTDYKPHADGPHTYHESPISINYRTEIDKPCQHHHHHH
modifications: 40 kDa branched PEG on the Cys of the C-terminal Cys tail
notes: also called I1-GS10-E5 (with Peg)
Q: B2 was tested. Which Kd (mouse EGFR) did it give?
A: 3.4 nM

Q: What about the Kd (rat EGFR) of the same binder?
A: 3.6 nM

Q: What about the Kd (monkey EGFR) of the same binder?
A: 5.1 nM

Q: What about the “inhibition of RH41 cell proliferation, IC50” value [5] of the same binder?
A: 0.2 nM

Q: What about the “pIGFR IC50” value [6] of the same binder?
A: 2.2 nM

B3: I1-GS10-E1 pegylated, His-tagged (designed binder)
chain: MGVSDVPRDLEVVAATPTSLLISWSARLKVARYYRITYGETGGNSPVQEFTVPKNVYTATISGLKPGVDYTITVYAVTRFRDYQPISINYRTEIDKGSGSGSGSGSGSGSGSGSGSVSDVPRDLEVVAATPTSLLISWVAGAEDYQYYRITYGETGGNSPVQEFTVPHDLVTATISGLKPGVDYTITVYAVTDMMHVEYTEHPISINYRTEIDKPCQHHHHHH
modifications: 40 kDa branched PEG on the Cys of the C-terminal Cys tail
Q: B3 was tested. Which “IC50, EGF-stimulated EGFR phosphorylation, A431 cells, In Cell Western” value [1] did it give?
A: 302 nM

Q: And the “IC50, EGF-stimulated EGFR phosphorylation, H292 cells, ELISA” value [1]?
A: 127 nM

Q: And the “IC50, EGF-stimulated ERK phosphorylation, A431 cells, In Cell Western” value [1]?
A: 300 nM

Q: What about the “IC50, IGF1-stimulated IGFR phosphorylation, H292 cells, ELISA” value [2] of the same binder?
A: 0.9 nM

B4: I1GS10-E3 (Pegylated) (designed binder)
I/E tandem 10Fn3 chain: MGVSDVPRDLEVVAATPTSLLISWSARLKVARYYRITYGETGGNSPVQEFTVPKNVYTATISGLKPGVDYTITVYAVTRFRDYQPISINYRTEIDKGSGSGSGSGSGSGSGSGSGSVSDVPRDLEVVAATPTSLLISWLPGKLRYQYYRITYGETGGNSPVQEFTVPHDLRTATISGLKPGVDYTITVYAVTNMMHVEYSEYPISINYRTEIDKPCQHHHHHH
modifications: Cys of the C-terminal Cys tail conjugated to 40 kDa branched PEG
Q: Which results are given for B4?
A: IC50, EGF-stimulated EGFR phosphorylation, A431 cells, In Cell Western [1]: 47 nM; IC50, EGF-stimulated EGFR phosphorylation, H292 cells, ELISA [1]: 46 nM; IC50, EGF-stimulated ERK phosphorylation, A431 cells, In Cell Western [1]: 50 nM; IC50, IGF1-stimulated IGFR phosphorylation, H292 cells, ELISA [2]: 2 nM
